{"source": "patent US20250154231A1", "about": "(RQBIO COVID, published 2025)", "binders": {"B1": {"name": "Omi18 (antibody, V domains shown)", "VH": "QVQLVESGGGLIQPGGSLRLSCAASGITVSSNYMTWVRQAPGKGLEWVSLLYAGGSAFYADSVKGRFTISRDNSKNTLYLLMNSLRVGDTAVYYCARDLQVYGMDVWGQGTTVTVSS", "VL": "SYELTQPPSVSVAPGQTARITCGGNNDGAKSVHWYQQKPGQAPVLVVYDDSDRPSGIPERFSGSNSGNTATLTITRIEAGDEADYYCQVWDSSRDHVFGTGTKVTVL"}, "B2": {"name": "Omi16 (antibody, V domains shown)", "VH": "EVQLVESGGGVVQPGGSLRLSCAASGIIVSANYMTWVRQAPGKGLEWVSVIYPGGSTFYADSVKGRFTISRDNSKNTLYLQMNSLRVEDSAVYYCARDLELAGFNDFWGQGTLVTVSS", "VL": "DVVMTQSPGTLALSPGERATLSCRTSQSVSSNYLAWYQQKPGQAPRLLIYGASSRATGIPDRFSGSGSGTDFTLTISRLEPEDFAVYYCQQFGSSPRYTFGQGTKVEIK"}, "B3": {"name": "Omi17 (antibody, V domains shown)", "VH": "QVQLVESGGGVVQPGGSLRLSCAASGVTVSSNYMSWVRQAPGKGLEWVSVLYAGGSTFYADSVKGRFTISRDNSKNTLYLQMNSLRAEDTAAYYCARDLAVAGFLDSWGQGTLVTVSS", "VL": "B2 VL with V2I, A12S, T25A, S28G, N32I, L48V, I49L, F92Y"}}, "note": "Where a chain is given by its changes, count along the chain named."}
{"molecular_target": "SARS-CoV-1 S protein (SARS-CoV-1, UniProt P59594 14-1195)", "test": "ELISA"}
{"binder": "B1", "binding result": "no binding"}
{"binder": "B2", "binding result": "no binding"}
{"binder": "B3", "binding result": "no binding"}
